Source: patent US20230287143A1

Key:
[1] = biological target: human 4-1BB (human) (UniProt Q07011); experiment: FACS; panel A
[2] = biological target: human 4-1BB (human) (UniProt Q07011); experiment: FACS; panel C
[3] = biological target: CHO-K1/hu OX40 (human) (UniProt P43489); experiment: FACS
CHO-K1/hu OX40 (human), sequence (P43489 29-277): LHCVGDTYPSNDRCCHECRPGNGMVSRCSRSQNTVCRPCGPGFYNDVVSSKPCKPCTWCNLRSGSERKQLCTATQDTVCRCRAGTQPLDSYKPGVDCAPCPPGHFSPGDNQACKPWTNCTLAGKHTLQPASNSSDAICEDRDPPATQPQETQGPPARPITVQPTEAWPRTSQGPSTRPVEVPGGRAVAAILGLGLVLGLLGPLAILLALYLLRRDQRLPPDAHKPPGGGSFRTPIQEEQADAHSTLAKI

human 4-1BB (human), sequence (Q07011 24-255): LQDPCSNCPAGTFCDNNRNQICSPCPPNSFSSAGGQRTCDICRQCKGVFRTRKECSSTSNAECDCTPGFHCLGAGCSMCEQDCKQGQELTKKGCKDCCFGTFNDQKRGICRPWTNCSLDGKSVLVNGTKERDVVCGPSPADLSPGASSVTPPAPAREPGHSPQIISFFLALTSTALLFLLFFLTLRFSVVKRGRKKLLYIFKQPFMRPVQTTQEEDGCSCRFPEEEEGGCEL

EC50 [1] | EC50 [2] | EC50 [3] | Substance
0.347 nM | 1.01 nM |  | Anti-4-1BB monoclonal antibody Urelumab analog (hIgG4)
 |  | 1.15 nM | Pogalizumab
